Measured values as given in the DeepSol protein solubility set.

Experiment: soluble on expression in E. coli; label from the status in PepcDB or PDB records

Sequence	soluble on expression in E. coli
VTVRMDPQRFDELVSDALDLIPPELADAMDNVVVLVANRHPQHENLLGQYEGVALTERGSDYAGSLPDAITIYREALLDACDSEDEVVDQVAITVIHEVAHHFGIDDERLDQLGWRDEPAPGRGNPDLSAPDAMNGP	soluble
DIKVTPGTSELVEQILALLSRYLSSYIHVLNKFISHLRRVATLRFERTTLIKFVKKLRFYNDSVLSYNASEFINEGKNELDPEADSFDKVILPIASMFVKSVETFDLLNYYLTQSLQKEILSKTLNEDLTLTAESILAIDDTYNHFVKFSQWMIESLRIGSNLLDLEVVQFAIKSADEDGTNIGETDNIFLQEILPVNSEEEFQTLSAAWHSILDGKLSALDEEFDVVATKWHD	soluble
MTAAATTTVSTAAAMQTAALASLYSQAAVAIINNKGDVGKALKDLGTSDTVKQIVTSALTAGALNQMGADIAQLNSKVRTELFSSTGNQTIANLGGRLATNLSNAGISAGINTAVNGGSLKDNLGNAALGALVNSFQGEAASKIKTTFSDDYVAKQFAHALAGCVSGLVQGKCKDGAIGAAVGEIVAESILGGRNPATLSDAEKHKVISYSKIIAGSVAALNGGDLEHHHHHH	not soluble
MSLDGIIPVVEKKDFLRWFLKEFTLKKRECSWLLNYLMSDDDLMENVHFVEEAERCPKALIMSTNDVHTVPFCFHKYQQVTMDAEKAFHDIRMNPEEAIYIQLHFSGAKHNPNYIAVLEDNPYVPENEDLIAKQKKLAEAFLERSVQSFEEKELLRRIDEALDARDKETFLTLSQQLQHLRQHSDEGHHHHHH	soluble
MGHHHHHHSHMSCTIEKILTDAKTLLERLREHDAAAESLVDQSAALHRRVAAMREAGTALPDQYQEDASDMKDMSKYKPHILLSQENTQIRDLQQENRELWISLEEHQDALELIMSKYRKQMLQLMVAKKAVDAEPVLKAHQSHSAEIESQIDRICEMGEVMRKAVQVDDDQFCKIQEILAQLELENKELRELLSISSESHQARKENSMDTASQAIK	not soluble
SGQKASQQVAPKDSQEVLAMCEVVSAAISHAAQKLKEYLGFEYPLSRLCLAASSLTEVFLVHFVTFCQERGADEWLTTTKMTKHQAWLFGADWIWTFWGPDKEIRLQVAVQTLRMASLPLTDPKSCESRGEESWKKGRFDKLQEFCNLVGEDCLGLFIIFGVPGEPKAIRGVVLESVRNGMMESQLPGRKAVEQFVLETKDCVSIKELLGNCLSKRDGLSDMGRVYIRIL	soluble
MKGVNMFERFTDRARRVIVLAQEEARGLNHNYIGTEHILLGLIHEGEGVAAKALESMGISLEAVRQEVEEIIGHGSEPPAGHIPFTPRAKKVLELSLREGLQMGHKYIGTEFLLLGLIREGDGVAAQVLVKLGADLPRVRQQVIQLLS	not soluble
MDNSGKEAEAMALLAEAERKVKNSQSFFSGLFGGSSKIEEACEIYARAANMFKMAKNWSAAGNAFCQAAQLHLQLQSKHDAATCFVDAGNAFKKADPQEAINCLMRAIEIYTDMGRFTIAAKHHISIAEIYETELVDIEKAIAHYEQSADYYKGEESNSSANKCLLKVAGYAALLEQYQKAIDIYEQVGTNAMDSPLLKYSAKDYFFKAALCHFCIDMLNAKLAVQKYEELFPAFSDSRECKLMKKLLEAHEEQNVDSYTESVKEYDSISRLDQWLTTMLLRIKKTIQGDEEDLR	soluble
GPGSMGAVKFQLYKTLGVPMKSSIKDITRAYRHLALKYHPDRNPEGVEKFKSISNAYAVLSDPERRAAYDLTGFLSDSADSSHAMSDEAARQQRSAELADQVRTFFATYAGSAEERLDVVRGYEKCRGDFKKMVREYLLFDNGVEAEVQRLHRLVSTLIELGNLSPTPAWKSTSTPEALLRLEKAMHRERQEAENVLKDMAGSGTGAAGAADGDLSSLQVMIRQRQQSSYESMLNHLESKYVTKKSNARESSKRTREAAPTARKDECASKKHRKASHHR	soluble
MGSDKIHHHHHHMLRLITDFDGPIIDVSERYYRVYQFCLEKTRRPDQVVQELPKAEFWQLKRSRVPEKQIAFNSGLDEAQAQEFAQLRRQTVHTEAYFNYDTLAPGAVDALLKIQEAGIDLAVMTMRRVRELDYAFKKYDLGRFFPENRCYCLSNDYVKTRDIEDKPLLMARALKELPPAADTWMVGDTEADITAAKNYDIKVMAVESGIRDRTQLELYHPDLIVKDFSTAVDLVLKPKHLV	not soluble
AHHHHHHGSIDPRELAISAKLEGVKRIIPVVSGKGGVGKSLISTTLALVLSEQKYKVGLLDLDFHGASDHVILGFEPKELPEEDKGVIPPTVHGIKFMTIAYYTEDRPTPLRGKEISDALIELLTITRWDELDFLVVDMPPGMGDQFLDVLKYFKRGEFLIVATPSKLSLNVVRKLIELLKEEKHQILGIVENMKLDEEEDVMRIAQEYGIRYLGGIPLYRDLESKVGNVNELLATEFAEKIRGIAKKI	soluble
MSLAEQESLALFDDTTEELFMKGTMLSTIFYNAENLFSVVRILVKETNADWDEKDIIVTGFFPALHEQEVYTFYGKMQEHAKFGQQFKADRFRKEMPQSRAGLINYLSGELFKGIGKVTAENIVDTIGDDAITKILSDPSLLNTVPKLPSGAAESLLASLRENQGLEHVMVGLNEYGFGPQLSMKIFQAYKQNAIEVLENNPYKLIEDVKGIGFQRADELGRKLGLGGNHPERLRAGILFMLDSVCMQQGHVYMEQEVLLGEVTYLLEESEGIRIDQSILVAQVEKLAEEQKIITENTRVYMPSLYYSESGFAYHVKRMLKQTEYQEQFPQSEFLLALGELEERIGVHYGDSQRQALEQALMSPMLVLTGGPGTGKTTVIKGIVELYAELNGVSLDPHAYKDGATFPVLLAAPTGRAAKRMSESTGLPAMTIHRLLGMNGQEQMDDDAERLIDGRLLIVDEMSMVDIWLANQLFRALPAHMQVVLVGDQDQLPSVGPGQVLKDILQSEQIPTVALSDIYRQKDGSSIIEMAHYIKEGMLPADFTKNSADRSFFHCTVNQIGDVVEQVVKNAKNKGFRAKDIQVLAPMYRGPAGIDILNKKLQEIFNPNDTGRRKEVQFGDIKYRVHDKVLQLINQPEKNVFNGDIGEIVSIIYAKENTEKQDLIVVQFDQTEVSYYRQEFNQLTHAYCCSIHKAQGSEFPIVIMPIVRSYYRMLRRDLLYTGVTRSKQFLILCGEEEAFRMGIERIDENKRNTTLSERLMSEDVLLEQMTNKRILTAENITEIDPMIGMEGITPEQFMVGEGHHHHHH	soluble
MLPQLKAQFKEREPDVREYNADILVVGGGLGGVAAALGALRNGRSVILTEAFEWIGGQLTSQAVPPDEHSWVEQFGITASYRALRTGVRQYYRDHYPLTDAARADLTLNPGDGNVSRLCHEPRVSLAVMEAMLAPFAAGGKLTILKPYEPIAADVEGDTVRAVTLRHCNTSDLVSCSARYIIDATELGDLLPLTATDYVTGFEAQSETGEPSAPAEAQPHNQQAVSICFAVDQVDGNHVIDKPARYDHWRQVAPEFWGGPLLSWDSPNPRTLERSRRFFDPNPVDNATRDVADQRHSAGDMSLWIFRRIAARHTFRPGAYASDICLVNWPMIDYFEAPIIDVTPEQYAERLADAASLSYSMFYWMQTEAPRPDGGQGFPGLRLRGDITGTEHGLAMAPYIRESRRIRALTTVVEQDLSLAVRGDRGAVHYPDSIGIGMYRIDLHPSTGGDNYIDVGACPFEIPLGALISRHKTNLLAASKNIGTTHITNGCYRLHPVEWNIGEVAGMLAAYCLDKGETPHGVHADEKRLAEFHTHIERQGVERHWPDIRGYLEHHHHHH	not soluble
MKLNIRAQTAQNQHNNSPIVLVHGLFGSLDNLGVLARDLVNDHNIIQVDMRNHGLSPRDPVMNYPAMAQDLVDTLDAQQIDKATFIGHSMGGKAVMALTALASDRIDKLVAIDIAPVDYHVRRHDEIFAAINAVSESDAQTRQQAAAIMRQHLNEEGVIQFLLKSFVDGEWRFNVPVLWDQYPHIVGWEKIPAWDHPALFIPGGNSPYVSEQYRDDLLAQFPQARAHVIAGAGHWVHAEKPDAVLRAIRRYLND	not soluble
MKYMITSKGDEKSDLLRLNMIAGFGEYDMEYDDVEPEIVISIGGDGTFLSAFHQYEERLDEIAFIGIHTGHLGFYADWRPAEADKLVKLLAKGEYQKVSYPLLKTTVKYGIGKKEATYLALNESTVKSSGGPFVVDVVINDIHFERFRGDGLCMSTPSGTTAYNKSLGGALMHPSIEAMQLTEMASINNRVYRTIGSPLVFPKHHVVSLQPVNDKDFQISVDHLSILHRDVQEIRYEVSAKKIHFARFRSFPFWRRVHDSFIEDLEHHHHHH	soluble
MVVSKMNKDAQMRAAINQKLIETGERERLKELLRAKLIECGWKDQLKAHCKEVIKEKGLEHVTVDDLVAEITPKGRALVPDSVKKELLQRIRTFLAQHASL	soluble
MGQERLDNANPTLFDSKPRHRPVTGTERDESVEDPIDSWEIFDLIRDINDPEHPYTLEQLNVVQEELIKVFIDEEETFVKVNFTPTIPHCSMATLIGLAIRVKLLRSLHPKVKVSVSITPGSHSTEESINRQLADKERVAAAMENQGLMHAVNECLRVPE	not soluble
MAPMFGVSFDFDPDFSLLSNKTHKSRNPKPPVKLLPYRHGSNTTSSDSDSYTSDLDLPTMRLHHQWLRSPSRSKMCCSTGSSSISQSIHRA	not soluble
MDTTPEPFTGKMGSYILIAPDGDAAMIDSGPKTSWERVREELQSMGVRLRYVILTHIHLDHASAAGSIVRSLDTVEAVYVHPRGARHMADPERLWQASKQFLGDYADFFGKPEPVPEGKIVVPEDGEVLELPGGVKLHVIYTPGHASHHMSFYLPQEGVMFTGDSAGVSLKDDDGTLVEFPTTPPPFKPVEYINSLDAMARFKPEKLAFAHYGMRSGGMEYLRWHREDILRWVREAVEYVSRGGGDAEELMRLLADKLENAGKAYRARNPIISEFMYRGTVLGLMDTAVRGEWKRLHL	soluble
MGSDKIHHHHHHMTPSAGLGLKSQHYGDAIACDAEGLWFEVHPENYMSAGGPRLAALEAVRARRPVSLHGVGLSLAADTDPDPEHLQALKRLVDRFDPFVVSEHLAWSTHRGAHHPDLLPFPRTRAALDRICGNVARMQDALQRRVLIENPSLYLPLKGHALDEVDFLEALATRTGCGLLVDVNNVFVSAQNLGYAPETYLDALPAHAIGEIHLAGHAPDPGGSNLLIDTHGAPVAEVVWTLYARLIARIGPRPTLIERDDDIPDFAALMAERNRAVAVLASGQTAREPAHV	not soluble
MSLRLIATEEAVTFQPVVDALRAHSRTDDASLDMILVRDVYGDEPARPAMIGRLSDVTGERLAEMDSNGVDMHLLSLTAPGVQMFDAETGTRLARIANDLMAQTVAANPTRFAGLGTFAPQDPASAAREIERVATQLRLNGLVINSHTNDLYYDDPFFHPVFEAIEASGLALYIHPRAPSKQIDRAFRDYGMNSAIWGYGIETSTNAVRMILSGLFDRFPRLKIVLGHMGEAIPFWLWRLDYMHGNATTFGGAPKLKLKPSEYFRRNFAITTSGVESHAALRYSIEVLGPENVMWAIDYPYQPMAPAVQFIRTAPIPEDVKAMVAGGNAARIFRITEGHHHHHH	soluble
SIKDVHRCFVIACIPGKKPYTLALSDFISATAACFKSGIPLKTLKESLENMKETYFRPLKVEEFELLRTWLTLVYKTLKEVLFPLTENKRGICDTDDSIYDEFVKSIVTAIREGYSMEKIRLEQVVTNTKTQPRTEFESALLSQSTRIVVQTVQIAKEFSSEQ	soluble
MSLTLEDIARKLNISKNAVSLALANKPGVSEKTRQLVFQTAKELGYKFKEKEEQKGTIALIMTKNIIEDPYFFSAIVYSVENEIRKEGYDFSLYCISSEDEWNIEEILTSSSFEGIIIVSAISENVIKKIEEKKIPTVVIDNLVDSTCIDTVNTDNYRSTKAAIEYLIKQGFKHIGFIGDVNHAISYRERWEGFMAAHEEFDIEIDKKVCKIEGFKDFSKNPEPEIQAFLKSLEKMPQAFFCVSDLSTLLTASVLKEMGFQIPKDVSIVGFDDIELVKHFKPALSMIHIDRNYYGQRAVKQLLERIKCPNKPVEDVRIFCRLNIRKSIRAEGHHHHHH	not soluble
